Data on 24 substances can be found in patent publication US20100181197A1, “ISOELECTRIC POINT MARKERS” (GE HEALTHCARE BIO-SCIENCES AB, priority 2007, published 2010).

Ends that are not written are not given here.

One data set can be described thus: Isoelectric focusing of CY5-labelled pI markers in IPG strips, fluorescence scan. Particulars: linear IPG pH 3.70-4.05, 22 cm strip, 8 M urea, 20° C., 129 kVh, 0.3 μg/strip. Type of data set: physicochemical. The protocol: The amino acid sequences of the isoelectric point markers were selected essentially as described in Shimura, K. et al, Electrophoresis, (2000), 21, 603-610. The markers contain a minimum of two […] groups with pK values in the vicinity of the pI value of the corresponding marker. The pH scale is a pH scale defined for isoelectric focussing in 8M urea and 20° C. as described in Bjellqvist, B. et al, Electrophoresis, (1993), 14, 1357-1365, Bjellqvist, B. et al, Electrophoresis, (1994), 15, 529-539.
3.2 Sample application was performed with polyacrylamide gel pieces, cast as 1 mm thick gel of the size 260×110 mm on a GelBond PAGE film. In addition to acrylamide (38.8 gram/litre) and bisacrylamide (1.2 gram/litre) the gel polymerising solution contained 15.0 mM Immobiline pK 3.6 and 5.9 mM Immobiline pK 9.3. The polymerisation initiators used were ammonium persulfate and tetramethyl ethylenediamine. The gel was extensively washed in water (10 wash cycles of 20 minutes using 200 ml water/wash). To the last wash was added 2% glycerol. The gel was then dried and cut to generate a number sample application gel pieces of the size 43×7 mm.
Four, 22 cm long IPG strips were re-swollen overnight in 250 μl 8 M urea solution containing 1% Pharmalyte pH 2.5-5 and a trace of bromophenol blue. In parallel, four sample application gel pieces were re-swollen in 315 μl sample solution containing 300 μg yeast protein in 8 M urea to which 0.3 μg of the pI marker had been added.
The four re-swollen IPG strips were positioned in a ceramic manifold in the IPGPHOR™ 3 with the GelBond film downwards. At the basic/cathodic ends of the IPG strips, paper electrode wicks (10×7×1 mm) to which 150 ul water had been added, were positioned on top of the IPG strips with an overlap of 2 mm to establish electric contact. At the anodic end, the wetted electrode wick was positioned 39 mm away from the acidic end of the IPG strip. The re-swollen acidic sample application gel was positioned with the gel side down as a bridge between the paper electrode wick and the IPG strip to give contact both with the paper wick and with the IPG strip through a 2 mm overlap region. The anodic and cathodic electrodes were finally positioned on the anodic and cathodic paper electrode wicks respectively and a light pressure was applied on the back of the sample application gels at the over lap regions with the paper electrode wicks and the IPG strips respectively.
3.3 Focusing was then performed at 20° C. with maximum current set to 50 uA/strip with the following voltage settings:
The focusing experiment was performed with current limitations from 1000V onwards; 2500 V was reached after 5 hours and the voltage only changed slowly to reach a final voltage of 2715 V after 52 hours 23 minutes and a total volthourproduct of 129 kilovolthours.
Upon completion, the gel strips were transferred to a TYPHOON™ 9400 imager and scanned in the fluorescence mode at 633 nm (FIG. 3). From the focusing positions the pI-value for the marker was determined to be 3.86.
Focusing was performed in IPG strips pH 3.4-4.9 containing a non-linear pH-gradient adjusted to give an even distribution of peptides in the focused strip. The experiment was run essentially as described in Example 3. For sample application, the same type of polyacrylamide gel applicator was used, this time re-swollen in an 8M urea solution containing 30 μg of the digested yeast proteins and 0.3 μg of each of the four pI-markers. Focusing was continued for 47 hours 45 minutes and the total volthourproduct was 207 kVh.
As for “H2N-Asp-Gly-Asp-Gly-Lys(CY™5)-COOH (H-DGDGK(Cy5)-OH) [Compound xvii]”, the “pI-value for the marker from focusing positions” value was found to be 3.86.

The data set is the same for the next values; noted with them: marker reacted at C-terminal lysine with CY5; experimental pI.
With “H2N-Asp-Gly-Asp-Gly-Lys(CY™5)-COOH (H-DGDGK(Cy5)-OH) [Compound xvii]”, the “pI (exp) pI/marker” value is given as 3.86.
The same measure, in the same setting: then “H2N-Glu-Gly-Asp-Gly-Lys(CY™5)-COOH (H-EGDGK(Cy5)-OH) [Compound xxii]”, with 4.18.
Still for that read-out and setting: the value for “H2N-Glu-Gly-Glu-Gly-Lys(CY™5)-COOH (H-EGEGK(Cy5)-OH) [xxiii]” was 4.28; that for “H2N-Gly-Asp-Gly-Gly-Asp-Gly-Gly-Lys(CY™5)-COOH [xviii]” was 4.02.
In the case of “H2N-Gly-Glu-Glu-Gly-Gly-Lys(CY™5)-COOH [Compound xx]”, the “pI (exp) pI/marker” value was 4.44.
Consider “H2N-Gly-Glu-Gly-Gly-Glu-Gly-Glu-Lys(CY™5)-COOH (H-GEGGEGEK(Cy5)-OH) [xix]”, for which the “pI (exp) pI/marker” value is reported as 4.22.
Still for that read-out and setting: then “H2N-Gly-Gly-Glu-Gly-Gly-Glu-Gly-Lys(CY™5)-COOH (H-GGEGGEGK(Cy5)-OH) [xxiv]”, with 4.42; and “H2N-Gly-Gly-Gly-Gly-Glu-Glu-Lys(CY™5)-COOH (H-GGGGEEK(Cy5)-OH) [Compound xxi]”, with 4.56.

The next data set is described as follows: Experimentally determined pI-values of tryptic peptides focused in IPG strips. Type of data set: physicochemical. Particulars: tryptic yeast peptides focused in IPG strips 3.7-4.05. An excerpt: Both methods are based on the equilibria of amino acid residues participating in reactions with water and can be described with one pK-value for each type of residue, which is independent of the nature of neighbouring amino acids. The consequence of this assumption is that for large groups of tryptic peptides, the same pI-value will be predicted. […] The approaches described above will result in the same pI-value for all these peptides. The value predicted at the Expasy server is 4.53, which can be compared with the value resulting from the experimental distribution, i.e. 4.49±0.075.
It would be expected that the presence of two negatively charged amino acid residues at limited distances from each other along the amino acid chain should result in an increase of the pK-values involved and a concomitant increase of the pI-value, while two positively charged residues at limited distances from each other along the peptide chain could be expected to give reversed effect, i.e. a decrease in pK-values and a concomitant decrease of the pI-value. In reality, no such effects can be detected. […] In the peptides, C-terminal amino acids are either lysine or arginine. […] This is explained by the presence of two oppositely charged amino acid residues in the chain, thereby favouring configurations with a short distance between the two residues. As a consequence, pK-values are affected also when these residues are separated by up to 5 amino acid residues. On the other hand, the presence of two equally charged residues favours configurations with the longest possible distance between the charged groups and for neighbouring charged residues, the average distance becomes too long to generate a detectable effect on pK and pI values.
The C-terminal, which in tryptic digests is either lysine or arginine contains both a positively charged group and a negatively charged group, gives notable effects on resulting pI-values only when the neighbouring group is charged. At larger distances, for peptides having two internal glutamic acid residues (no glutamic acid in position 1-6), the C-terminal amino acid being either lysine or arginine, the effect on pI is negligible (Table 2).
3.1 Yeast proteins (Saccharomyces cerevisiae, type II (1 gram) were dissolved in a 10 ml solution containing 50 mM Tris-HCl pH 8.0, 6 M urea and 10 mM DDT. The solution was allowed to stand for 1 hour at 37° C. and then allowed to react with iodoacetamide (addition of 250 μl 0.8 M iodoacetamide solution) for 30 minutes at room temperature to […] the cysteine groups. The sample was then sonicated 5 times for 30 seconds followed by dilution of the sample in 50 mM Tris-HCl, 1 mM CaCl2 (1 ml sample to 9 ml Tris-Cl buffer solution). 2.5 ml of diluted sample was added to a container with 250 μg trypsin (4 containers for 10 ml diluted sample) and digestion was allowed to proceed for 2 hours at 37° C. The sample was then concentrated by evaporation to 2 ml. 1 ml of digested concentrated sample was then added to a NAP-10 column pre-equilibrated with 15 ml 8 M urea solution and the sample was eluted with 1.5 ml urea. After a protein determination the sample was aliquoted and frozen until used.
A total of 6612 tryptic yeast peptides have been identified after focusing in IPG strips 3.7-4.05. Sixteen of these peptides have a structure (Table 5) which should give them a pI in close agreement with the pI of the marker. The average value found for these peptides 3.80±0.03 is in reasonable agreement with the value found for the pI marker.
In turn, “DADLLNSVVVQR [tryptic yeast peptide identified after focusing in IPG strips 3.7-4.05]” displayed a pI-value of 3.775.
On the same count and under the same terms, then “DCDSLSSLVTR [tryptic yeast peptide identified after focusing in IPG strips 3.7-4.05]”, with 3.765; and “DGDQVVFMVSQK [tryptic yeast peptide identified after focusing in IPG strips 3.7-4.05]”, with 3.760; and “DGDYNLVGSK [tryptic yeast peptide identified after focusing in IPG strips 3.7-4.05]”, with 3.746.
On the same count and under the same terms, the value for “DIDILVNNAGK [tryptic yeast peptide identified after focusing in IPG strips 3.7-4.05]” was 3.828; that for “DIDNGYTLSLMYK [tryptic yeast peptide identified after focusing in IPG strips 3.7-4.05]” was 3.800.
Same read-out and setting: then “DLDAAQGTLK [tryptic yeast peptide identified after focusing in IPG strips 3.7-4.05]”, with 3.815; and “DLDAVNGSNGSK [tryptic yeast peptide identified after focusing in IPG strips 3.7-4.05]”, with 3.790; and “DLDLPTQQILVAR [tryptic yeast peptide identified after focusing in IPG strips 3.7-4.05]”, with 3.830.
For the substance “DNDVQLAATK [tryptic yeast peptide identified after focusing in IPG strips 3.7-4.05]”, the pI-value is given as 3.800.
Same read-out and setting: the value for “DQDSAVVSSNIK [tryptic yeast peptide identified after focusing in IPG strips 3.7-4.05]” was 3.823.
“DSDVTWLYGPIVR [tryptic yeast peptide identified after focusing in IPG strips 3.7-4.05]” showed a pI-value of 3.800.
Turning to “DSDYIPVVVVGNK [tryptic yeast peptide identified after focusing in IPG strips 3.7-4.05]”, the pI-value came to 3.825.
Same read-out and setting: the value for “DTDMVLIPAGVPR [tryptic yeast peptide identified after focusing in IPG strips 3.7-4.05]” was 3.808; that for “DTDYVPIVVVGNK [tryptic yeast peptide identified after focusing in IPG strips 3.7-4.05]” was 3.840.
As for “DVDLVNAAR [tryptic yeast peptide identified after focusing in IPG strips 3.7-4.05]”, the pI-value was found to be 3.800.
